Measurements reported in patent publication US12366576B2, “Compositions, assays, and methods for direct modulation of fatty acid metabolism” (Dana-Farber Cancer Institute, Inc., priority 2016, dated 2025).
Bridge positions count the residues as written; N and C are the ends. Square brackets hold non-standard residues; d marks the D form. Ends that are not written are not given here. Peptide text beside a SMILES is read from it. S5 = C=CCCC[C@](C)(N)C(=O)O

Biological target: T1, native VLCAD (Mus musculus, UniProt P50544)
T1 construct: As for native VLCAD from MEF lysates; endogenous in cells; host or cells: SV-40-transformed wild-type mouse embryonic fibroblasts (lysate)
T1 sequence (P50544 42-656): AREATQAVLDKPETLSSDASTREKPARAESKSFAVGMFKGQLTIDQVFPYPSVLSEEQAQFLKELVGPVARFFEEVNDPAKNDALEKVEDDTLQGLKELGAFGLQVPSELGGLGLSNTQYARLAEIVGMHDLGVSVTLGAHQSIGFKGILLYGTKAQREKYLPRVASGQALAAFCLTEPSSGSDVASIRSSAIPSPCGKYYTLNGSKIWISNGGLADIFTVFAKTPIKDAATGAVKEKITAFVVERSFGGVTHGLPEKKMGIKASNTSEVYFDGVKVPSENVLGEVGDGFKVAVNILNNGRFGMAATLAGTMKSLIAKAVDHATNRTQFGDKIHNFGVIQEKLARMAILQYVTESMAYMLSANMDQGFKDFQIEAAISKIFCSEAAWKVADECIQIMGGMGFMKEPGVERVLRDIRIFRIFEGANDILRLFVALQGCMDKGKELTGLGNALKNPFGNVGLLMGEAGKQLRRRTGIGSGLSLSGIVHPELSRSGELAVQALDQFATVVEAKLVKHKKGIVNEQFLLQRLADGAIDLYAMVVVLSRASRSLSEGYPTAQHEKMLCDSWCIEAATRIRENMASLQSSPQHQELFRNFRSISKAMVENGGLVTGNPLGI
Assay: Biotinylated SAHB pulldown from MEF lysates, anti-VLCAD Western analysis
Assay type: binding
Conditions: for best overall binders to VLCAD based on pull-downs and ITC: summary of binding properties; for summary of binding properties: binding to VLCAD: pull-downs and ITC
Description: To validate the MS result, the pulldowns were repeated and eluates run on a gel for anti-VLCAD Western blot analysis. […] All peptides faithfully recapitulated native BH3-binding propensities for endogenous MCL-1 protein (FIG. 8). The eluates were then probed for the other members of the acyl-CoA dehydrogenase family that manifest shorter fatty acid substrate specificities. MCL-1 SAHBD was able to pull down VLCAD, but not MCAD or SCAD (FIG. 9). Because the traditional MCL-1 staple location differs from that of the BIM, BID, and BAD SAHBs, it was important to confirm that the observed VLCAD binding specificity was due to BH3 sequence selectivity, not staple position. A BIM SAHB with the traditional MCL-1 staple (BIM SAHBF), and a MCL-1 stapled peptide with the traditional BIM staple (MCL-1 SAHBA), were generated. […] To confirm that the selective interaction between MCL-1 SAHBD and VLCAD is direct, recombinant VLCAD was generated and purified by size exclusion chromatography (FIGS. 11 and 12).
The binding determinants for the MCL-1 BH3/VLCAD interaction were investigated by generating a series of biotinylated MCL-1 SAHBD alanine point mutants (FIG. 18A) and performing streptavidin pull-downs from MEF lysates, followed by VLCAD and MCL-1 western analysis of the resulting eluates. […] Native alanines and residues not mutated are colored white. The dotted semicircles highlight the distinctive MCL-1 BH3 binding interfaces for VLCAD versus MCL-1 engagement, as defined by the differential sensitivities to alanine mutagenesis.
Wild-type MEFs were trypsinized, washed once with cold PBS, and lysed on ice with NP-40 lysis buffer (50 mM Tris, pH 7.4, 150 mM NaCl, 0.5% (v/v) NP-40, complete protease inhibitor pellet (Roche)) using 1 ml of lysis buffer for every 10 million cells lysed. Cellular debris was pelleted at 14,000 g for 10 min at 4° C., and the supernatant was quantified using the BCA Protein Assay Kit (Thermo Fisher Scientific). 2 mg of lysate per pulldown were then exposed to 50 μL of pre-equilibrated High Capacity Streptavidin Agarose beads (Thermo Fisher Scientific). The pre-cleared lysates were then incubated with 15 nmol biotinylated SAHBs (or vehicle, 1.5% (v/v) DMSO) overnight at 4° C., followed by addition of 50 μL of pre-equilibrated High Capacity Streptavidin Agarose beads for 2 hours at 4° C. The beads were then pelleted and washed with NP-40 lysis buffer three times before eluting the protein sample from the beads by heating at 70° C. for 10 min in SDS loading buffer. Samples were then subjected to electrophoresis and either Western analysis or Coomassie stain (SimplyBlue Safe Stain, Thermo Fisher Scientific). The antibodies used for Western analysis were the following: MCL-1 (Rockland 600-401-394; 1:1000 in 3% BSA), VLCAD (Thermo Fisher Scientific PA5-29959; 1:1000 in 1% milk+0.1% Tween-20), MCAD (Thermo Fisher Scientific PA5-27201; 1:1000 in 3% BSA), and SCAD (Abcam ab154823; 1:1000 in 3% BSA). Coomassie stained gels were then processed for proteomics analysis (see below). Biotinylated SAHB pulldowns of recombinant protein were performed as above incubating 5 nmol of SAHB with 10 pmol of rVLCAD in 500 μL total volume. Densitometry analyses were performed using ImageJ software.

With “D218A: biotinylated MCL-1 SAHBD alanine point mutant D218A (RKALETLRRVGAGV[S5]RNH[S5]TAF; staple 15-19; also: biotinylated, place not given here)” the “best overall binders to VLCAD based on pull-downs and ITC” value was “Best overall binders to VLCAD” and the “summary of binding properties: binding to VLCAD” value (from here on “summary of binding properties”) was “Binds”.

For “F228A: biotinylated MCL-1 SAHBD alanine point mutant F228A (RKALETLRRVGDGV[S5]RNH[S5]TAA; staple 15-19; also: biotinylated, place not given here)”, the “summary of binding properties” value was “Does not bind”.

For “R214A: biotinylated MCL-1 SAHBD alanine point mutant R214A (RKALETLARVGDGV[S5]RNH[S5]TAF; staple 15-19; also: biotinylated, place not given here)”, the “summary of binding properties” value was “Does not bind”.

For “L213A: biotinylated MCL-1 SAHBD alanine point mutant L213A (RKALETARRVGDGV[S5]RNH[S5]TAF; staple 15-19; also: biotinylated, place not given here)”, the “effect of alanine mutation on biotinylated MCL-1 SAHBD interaction with VLCAD” value (pull-downs from MEF lysates) was “disrupted” and the “summary of binding properties” value was “Does not bind”.

“R207A: biotinylated MCL-1 SAHBD alanine point mutant R207A (AKALETLRRVGDGV[S5]RNH[S5]TAF; staple 15-19; also: biotinylated, place not given here)” was tested, and the “summary of binding properties” value was “Does not bind”.

For CC(=O)N[C@@H](CCCNC(=N)N)C(=O)N[C@@H](CCCCN)C(=O)N[C@@H](C)C(=O)N[C@@H](CC(C)C)C(=O)N[C@@H](CCC(=O)O)C(=O)N[C@H](C(=O)N[C@@H](CC(C)C)C(=O)N[C@@H](CCCNC(=N)N)C(=O)N[C@@H](CCCNC(=N)N)C(=O)N[C@H](C(=O)NCC(=O)N[C@@H](CC(=O)O)C(=O)NCC(=O)N[C@@H](C)C(=O)N[C@@]1(C)CCCC=CCCC[C@@](C)(C(=O)N[C@H](C(=O)N[C@@H](C)C(=O)N[C@@H](Cc2ccccc2)C(N)=O)[C@@H](C)O)NC(=O)[C@H](Cc2c[nH]cn2)NC(=O)[C@H](CC(N)=O)NC(=O)[C@H](CCCNC(=N)N)NC1=O)C(C)C)[C@@H](C)O [V220A] (Ac-RKALETLRRVGDGA[S5]RNH[S5]TAF-NH2; staple 15-19; N-terminus and C-terminus assumed), the “best overall binders to VLCAD based on pull-downs and ITC” value was “Best overall binders to VLCAD” and the “summary of binding properties” value was “Binds”.

For “MCL-1 SAHBD: hydrocarbon-stapled peptide mimicking the MCL-1 BH3 domain (Stabilized Alpha-Helix of BCL-2 Domain), SEQ ID NO:19 (RKALETLRRVGDGV[S5]RNH[S5]TAF; staple 15-19)”, the “summary of binding properties” value was “Binds” and the “pull down of VLCAD from cellular lysates” value (wild-type MEF lysates, 15 nmol biotinylated SAHB) was “VLCAD was detected”.

“R215A: biotinylated MCL-1 SAHBD alanine point mutant R215A (RKALETLRAVGDGV[S5]RNH[S5]TAF; staple 15-19; also: biotinylated, place not given here)” was tested, and the “summary of binding properties” value was “weakly or not”.
